Changes are numbered by the printed parent chain. Names may count otherwise.
B1: A17D/R79T (antibody, human IgG1, kappa, V domains shown)
VH: EVQLVESGGGLVQPGGSLRLSCSASGFTFSSFGMHWVRQAPGKGLEWVAYISSGSSTIYYGDTVKGRFTISRDNAKNSLFLQMSSLRAEDTAVYYCAREGGYYYGRSYYTMDYWGQGTTVTVSS
VL: DVVMTQSPLSLPVTPGDPASISCRSSQSIVHSNGNTYLEWYLQKPGQSPKLLIYKVSNRFSGVPDRFSGSGSGTDFTLTISRVEAEDVGIYYCFQGSHVPPTFGPGTKLEIKR
B2: A17D/R79T_DI 3 (antibody, human IgG1, kappa)
heavy: not shown
light: DVVMTQSPLSLPATPGDPASISCRSSQSIVHSNGNTYLEWYLQKPGQSPKLLIYKVSNRFSGVPDRFSGSGSGTDFTLTIQRVEAEDVGIYYCFQGSHVPPTFGPGTKLEIKRTVAAPSVFIFPPSDEQLKSGTASVVCLLNNFYPREAKVQWKVDNALQSGNSQESVTEQDSKDSTYSLSSTLTLSKADYEKHKVYACEVTHQGLSSPVTKSFNRGEC
notes: also called deimmunized variant 3 of A17D/R79T
B3: A17D/R82S (antibody, human IgG1, kappa, V domains shown)
VH: B1 VH
VL: B1 VL with T79R, R82S
B4: A17D/R79T_DI 8 (antibody, human IgG1, kappa)
heavy: not shown
light: B2 light with Q81S, E84D
notes: also called deimmunized variant 8 of A17D/R79T
B5: A17D/R79T_DI 7 (antibody, human IgG1, kappa)
heavy: not shown
light: B2 light
notes: also called deimmunized variant 7 of A17D/R79T
B6: A17D/R79T_DI 2 (antibody, human IgG1, kappa)
heavy: not shown
light: B2 light with A13V, I21V, Q81S, E84D
notes: also called deimmunized variant 2 of A17D/R79T
B7: A17D/R79T/R82S (antibody, human IgG1, kappa, V domains shown)
VH: B1 VH
VL: B1 VL with R82S
B8: A17D/R79T_DI 1 (antibody, human IgG1, kappa)
heavy: not shown
light: B2 light with A13V, I21V
notes: also called deimmunized variant 1 of A17D/R79T
B9: A17D (antibody, human IgG1, kappa, V domains shown)
VH: B1 VH
VL: B1 VL with T79R
B10: A17D/R79T_DI 5 (antibody, human IgG1, kappa)
heavy: not shown
light: B2 light with A13V, I21V
notes: also called deimmunized variant 5 of A17D/R79T
B11: A17D/R79T_DI 4 (antibody, human IgG1, kappa)
heavy: not shown
light: B2 light with Q81S, E84D
notes: also called deimmunized variant 4 of A17D/R79T
B12: A17D/R79T_DI 6 (antibody, human IgG1, kappa)
heavy: not shown
light: B2 light with A13V, I21V, Q81S, E84D
notes: also called deimmunized variant 6 of A17D/R79T
B13: BAN2401 (antibody, V domains shown)
VH: B1 VH
VL: DVVMTQSPLSLPVTPGAPASISCRSSQSIVHSNGNTYLEWYLQKPGQSPKLLIYKVSNRFSGVPDRFSGSGSGTDFTLRISRVEAEDVGIYYCFQGSHVPPTFGPGTKLEIK
notes: also called humanized version of mAb158

biological target: T1, Aβ1-40 monomers (UniProt P05067 672-711); experiment: inhibition ELISA: antibody pre-incubated in solution with Aβ monomers, then transferred to Aβ coated plates
T1 construct: domain: Aβ1-40; Aβ numbering is not APP numbering; also called Aβ monomers; Aβ monomer
Experimental: (§1) The binding characteristics towards Aβ protofibrils and Aβ monomers of the antibodies of the invention compared to BAN2401 were analyzed using an inhibition ELISA in which antibodies were pre-incubated in solution with Aβ protofibrils or Aβ monomers and then transferred to Aβ coated ELISA plates, as described in Tucker et. al. J Alzheimers Dis. 2015; 43(2):575-88. doi: 10.3233/JAD-140741. PubMed PMID: 25096615, and references cited therein.

T1 sequence (P05067 672-711 limits assumed): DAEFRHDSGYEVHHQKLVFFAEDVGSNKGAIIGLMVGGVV

Row | binding result | Binder
1 | binds | B1
2 | binds | B2
3 | binds | B3
4 | binds | B4
5 | binds | B5
6 | binds | B6
7 | binds | B7
8 | binds | B8
9 | binds | B9
10 | binds | B10
11 | binds | B11
12 | binds | B12

biological target: T2, Aβ1-42 protofibrils (UniProt P05067 672-713); experiment: inhibition ELISA: antibody pre-incubated in solution with Aβ protofibrils, then transferred to Aβ coated plates
T2 construct: domain: Aβ1-42; Aβ numbering is not APP numbering; also called Aβ protofibrils; Aβ-protofibrils
Experimental: as §1

T2 sequence (P05067 672-713 limits assumed): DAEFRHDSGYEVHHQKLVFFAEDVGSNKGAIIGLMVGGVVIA

Row | binding result | Binder
13 | binds | B1
14 | binds | B2
15 | binds | B3
16 | binds | B4
17 | binds | B5
18 | binds | B6
19 | binds | B7
20 | binds | B8
21 | binds | B9
22 | binds | B10
23 | binds | B11
24 | binds | B12

biological target: T2, Aβ1-42 protofibrils; experiment: inhibition ELISA: antibody pre-incubated in solution with Aβ protofibrils, then transferred to Aβ coated plates; BAN2401 is the reference
Experimental: as §1

Row | binding result | Binder
25 | binds | B13

Reference: US20160009793A1 (BIOARCTIC NEUROSCIENCE, published 2016)
